Key:
HLA-A*02:03 = experiment: IEDB peptide-MHC binding, purified MHC/competitive/radioactivity; filed as Kd, often an IC50 or EC50 that approximates it; ≥ and ≤ were set here for values at or beyond the usual limits of such assays
HLA-A*02:06 = experiment: as above
HLA-A*02:17 = experiment: as above
HLA-A*02:01 [1] = experiment: as above
HLA-A*32:01 = experiment: as above; details: source organism: Dengue virus 3 Singapore/8120/1995
HLA-B*07:02 = experiment: IEDB peptide-MHC binding, purified MHC/competitive/fluorescence; ≥ and ≤ were set here for values at or beyond the usual limits of such assays
HLA-A*24:02 = experiment: as above
HLA-A*02:01 [2] = experiment: as above; details: source organism: Zaire ebolavirus
HLA-B*15:01 [3] = experiment: as above; details: source organism: Vaccinia virus Copenhagen
HLA-B*58:01 = experiment: IEDB peptide-MHC binding, purified MHC/competitive/fluorescence; filed as Kd, often an IC50 or EC50 that approximates it; ≥ and ≤ were set here for values at or beyond the usual limits of such assays; details: source organism: Yersinia pestis Nepal516
HLA-A*03:01 [4] = experiment: as above; details: source organism: Yersinia pestis Nepal516
HLA-A*01:01 = experiment: as above; details: source organism: Yersinia pestis Nepal516
HLA-B*15:01 [5] = experiment: as above; details: source organism: Yersinia pestis Nepal516
HLA-A*02:01 [6] = experiment: as above; details: source organism: Burkholderia mallei ATCC 23344
HLA-C*06:02 = experiment: IEDB peptide-MHC binding, purified MHC/direct/fluorescence; filed as Kd, often an IC50 or EC50 that approximates it; ≥ and ≤ were set here for values at or beyond the usual limits of such assays; details: source organism: Burkholderia mallei ATCC 23344
HLA-B*08:02 = experiment: as above; details: source organism: Burkholderia mallei ATCC 23344
HLA-B*08:01 = experiment: IEDB peptide-MHC binding, purified MHC/competitive/radioactivity; filed as Kd, often an IC50 or EC50 that approximates it; ≥ and ≤ were set here for values at or beyond the usual limits of such assays; details: source organism: Dengue virus 3 Martinique/1243/1999
HLA-B*15:01 [7] = experiment: as above; details: source organism: Dengue virus 3 Martinique/1243/1999
HLA-A*03:01 [8] = experiment: IEDB peptide-MHC binding, purified MHC/competitive/fluorescence; ≥ and ≤ were set here for values at or beyond the usual limits of such assays; details: source organism: Zaire ebolavirus
HLA-A*11:01 = experiment: as above; details: source organism: Zaire ebolavirus
[9] = source organism: Dengue virus 2 Jamaica/1409/1983
[10] = source organism: Dengue virus 3 China/80-2/1980
[11] = source organism: Zaire ebolavirus
[12] = source organism: Dengue virus 3 Martinique/1243/1999
[13] = source organism: Vaccinia virus Copenhagen

Sequence: AIYGAAFSGV
- Kd (HLA-A*02:03; [9]): 8.6 nM
- Kd (HLA-A*02:06; [9]): 4.57 nM
- Kd (HLA-A*02:17; [9]): 627 nM
- Kd (HLA-A*02:01 [1]; [9]): 1.05 nM

Sequence: VLFTFVLLL
- Kd (HLA-A*32:01): 494 nM
- Kd (HLA-A*02:17; [10]): 568 nM

Sequence: TELRTFSIL
- IC50 (HLA-B*07:02; [11]): 50300 nM
- IC50 (HLA-A*24:02; [11]): 8430 nM
- IC50 (HLA-A*02:01 [2]): ≥ 395000 nM

Sequence: RLITANPVV
- Kd (HLA-A*02:03; [12]): 36.3 nM
- Kd (HLA-A*02:06; [12]): 65.1 nM
- Kd (HLA-A*02:17; [10]): 520 nM

Sequence: LPAAPDGIR
- IC50 (HLA-B*07:02; [11]): 54700 nM

Sequence: GPAAEGIYI
- IC50 (HLA-B*07:02; [11]): 60400 nM

Sequence: RIPNSLHSL
- IC50 (HLA-B*07:02; [13]): 37200 nM
- IC50 (HLA-B*15:01 [3]): 22700 nM
- IC50 (HLA-A*24:02; [13]): 656 nM

Sequence: KTAVVVTRY
- Kd (HLA-B*58:01): 36.2 nM
- Kd (HLA-A*03:01 [4]): 676 nM
- Kd (HLA-A*01:01): 455 nM
- Kd (HLA-B*15:01 [5]): 674 nM

Sequence: RLRRRRHPL
- Kd (HLA-A*02:01 [6]): ≥ 20000 nM
- Kd (HLA-C*06:02): ≥ 20000 nM
- Kd (HLA-B*08:02): 1190 nM

Sequence: YQLWTALISL
- Kd (HLA-B*08:01): 1320 nM
- Kd (HLA-A*02:06; [12]): 1.75 nM
- Kd (HLA-B*15:01 [7]): 5.62 nM
- Kd (HLA-A*02:17; [12]): 104 nM
- Kd (HLA-A*02:01 [1]; [12]): 18.8 nM

Sequence: GIRGFPRCR
- IC50 (HLA-B*07:02; [11]): ≥ 451000 nM
- IC50 (HLA-A*03:01 [8]): 1060 nM
- IC50 (HLA-A*11:01): 42100 nM
